The source of these data is US20190367612A1 (Daiichi Sankyo, published 2019).

Assay [1] concerns the target T1, human GPRC5D (human, UniProt Q9NZD1 1-345).
T1 construct: whole, on cells; also called hGPRC5D; G-protein coupled receptor family C group 5 member D
The experiment in a line: flow cytometry, KMS-34 cells. (In flow cytometry, cells or beads pass a laser one at a time.)

The target in assay [2] is T2, human GPRC5D amino-terminal peptide MYKDCIESTGDYFLLCDAEGPWGIILE-K(Biotin)-NH2, having an intramolecular … (human, C-terminal lysine carrying biotin, C-terminal amide; intramolecularly formed disulfide bond).
T2 construct: Peptide Institute synthetic peptide; also called amino-terminal peptide of biotinylated human GPRC5D (disulfide bond present)
T2 peptide: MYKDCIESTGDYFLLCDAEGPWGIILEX
The experiment in a line: ELISA, immobilised biotinylated peptide. The text has this:
(§1) Epitopes bound by the obtained rat anti-GPRC5D antibodies (2A4, 2B1, and 7B4) were identified using a human GPRC5D amino-terminal peptide […](Biotin)-NH₂ (Sigma-Aldrich Corp.) (SEQ ID NO: 1 of the Sequence Listing; FIG. 2) having a biotinylated carboxy-terminal peptide and lacking an intramolecularly formed disulfide bond, and a human GPRC5D amino-terminal peptide […]-K(Biotin)-NH₂ (Peptide Institute, Inc.) (SEQ ID NO: 2 of the Sequence Listing; FIG. 3) having a lysine-containing biotinylated carboxy terminus and having an intramolecularly formed disulfide bond. Each peptide diluted with PBS was added to Nunc Immobilizer (Thermo Fisher Scientific Inc.), and the plate was left standing at room temperature for 1 hour. After washing three times with PBST, […] containing 1% BSA was added thereto, and the plate was left standing at room temperature for 1 hour. After washing three times with PBST, each rat anti-GPRC5D antibody (2A4, 2B1, and 7B4) prepared in Example 1)-7 and diluted to 0.1 ng/mL to 1 μg/mL with PBS was added thereto, and the plate was left standing at room temperature for 1 hour. After washing three times with PBST, Anti-Rat IgG, HRP-Linked Whole Ab Goat (GE Healthcare Bio-Sciences Corp.) diluted 500-fold with PBS was added thereto, and the plate was left standing at room temperature for 1 hour. After washing three times with PBST, SuperSignal™ ELISA Pico Chemiluminescent Substrate (Thermo Fisher Scientific Inc.) was added thereto, and the luminescence was measured using a plate reader (ENVISION; PerkinElmer, Inc.).
On the technique in general: In an ELISA, binding on a coated surface is turned into a signal by an enzyme label.

Assay [3] addresses T3, human GPRC5D amino-terminal peptide …(Biotin)-NH2, lacking an intramolecular disulfide bond (human, biotinylated carboxy terminus, C-terminal amide; no intramolecularly formed disulfide bond).
T3 construct: Sigma-Aldrich synthetic peptide; also called amino-terminal peptide of human GPRC5D (disulfide bond absent)
T3 peptide: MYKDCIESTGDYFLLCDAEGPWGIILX
The experiment in a line: ELISA, immobilised biotinylated peptide.
Text: as §1

Assay [4] addresses T1, human GPRC5D. Put plainly: flow cytometry, KHM-1B cells. The protocol:
Human multiple myeloma cell line KHM-1B cells (JCRB Cell Bank) expressing GPRC5D were adjusted to a concentration of 5×10⁶ cells/mL with PBS containing 5% FBS, inoculated in an amount of 100 μL/well to a 96-well U-bottomed microplate, and centrifuged to remove a supernatant. Each rat anti-GPRC5D antibody (2A4, 2B1, and 7B4) adjusted to 0.32 ng/mL to 10 μg/mL in Example 1)-7 was added thereto in an amount of 100 μL/well, and the plate was left standing at 4° C. for 1 hour. The cells were washed twice with PBS containing 5% FBS. Then, PE Goat Anti-Rat Ab (Becton, Dickinson and Company) diluted 100-fold with PBS containing 5% FBS was added thereto at a concentration of 100 μL/well, and the plate was left standing at 4° C. for 1 hour. The cells were washed twice with PBS containing 5% FBS and then resuspended in PBS containing 5% FBS, followed by detection using a flow cytometer (FACSCanto™ II; Becton, Dickinson and Company). The data was analyzed using Flowjo (Tree Star, Inc.). The PE fluorescence intensity of the cell fraction was plotted to a histogram, and the mean fluorescence intensity (MFI) was calculated.

Assay [5] deals with T4, human CD3 (human, UniProt P07766 23-207).
T4 construct: CD3 complex on human PBMC; also called human CD3 (PBMC); human CD3-expressing cells
The experiment in a line: flow cytometry on human PBMC (dead and CD19-positive cells excluded), Penta-His Alexa Fluor 488 detection, rMFI = MFI minus sample without antibody. As to the method:
Commercially available human PBMC (Cellular Technology Limited) was adjusted to an appropriate concentration with PBS containing 5% FBS. LIVE/DEAD Fixable Near-IR Dead Cell Stain Kit (Thermo Fisher Scientific Inc.) and an anti-CD19 antibody (Beckman Coulter Inc.) were added to the cells, which were then left standing at 4° C. for 30 minutes. The cells were washed twice with PBS containing 5% FBS, then adjusted to a concentration of 1×10⁶ cells/mL with PBS containing 5% FBS, inoculated in an amount of 100 μL/well to a 96-well U-bottomed microplate, and centrifuged to remove a supernatant. Each anti-GPRC5D-anti-CD3 bispecific molecule (C2037-C3E7034 to C3022-C3E7036 prepared in Example 12) diluted with PBS containing 5% FBS were added thereto in an amount of 100 μL/well, and the plate was left standing at 4° C. for 60 minutes. The cells were washed twice with PBS containing 5% FBS. Then, Penta-His Alexa Fluor 488 (Qiagen N.V.) diluted with PBS containing 5% FBS was added thereto in an amount of 30 μL/well, and the plate was left standing at 4° C. for 30 minutes. […] The data was analyzed using Flowjo (Tree Star, Inc.). The mean fluorescence intensity (MFI) of Alexa Fluor 488 in a fraction free from dead cells and CD19-positive cells was calculated. […]

The target in assay [6] is T1, human GPRC5D. Put plainly: flow cytometry on A4/Fuk cells (endogenous human GPRC5D), Penta-His Alexa Fluor 488 detection, rMFI = MFI minus sample without antibody. The protocol:
Lymphoma cell line A4/Fuk cells (JCRB Cell Bank) were adjusted to an appropriate concentration with PBS containing 5% FBS. LIVE/DEAD Fixable Near-IR Dead Cell Stain Kit was added to the cells, which were then left standing at 4° C. for 30 minutes. The cells were washed twice with PBS containing 5% FBS, then adjusted to a concentration of 1×10⁶ cells/mL with PBS containing 5% FBS, inoculated in an amount of 100 μL/well to a 96-well U-bottomed microplate, and centrifuged to remove a supernatant. Each anti-GPRC5D-anti-CD3 bispecific molecule (C2037-C3E7034 to C3022-C3E7036 prepared in Example 12) diluted with PBS containing 5% FBS were added thereto in an amount of 100 μL/well, and the plate was left standing at 4° C. for 60 minutes. The cells were washed twice with PBS containing 5% FBS. Then, Penta-His Alexa Fluor 488 diluted with PBS containing 5% FBS was added thereto in an amount of 30 μL/well, and the plate was left standing at 4° C. for 30 minutes. The cells were washed twice with PBS containing 5% FBS and then resuspended in PBS containing 5% FBS, followed by detection using a flow cytometer (FACSCanto™ II). The data was analyzed using Flowjo. The mean fluorescence intensity (MFI) of Alexa Fluor 488 in a fraction free from dead cells was calculated. The MFI value of the antibody-unsupplemented sample was subtracted from the MFI value of the antibody-supplemented sample to calculate a relative value of MFI (rMFI).

Assay [7] addresses T5, cynomolgus monkey CD3 (cynomolgus monkey, UniProt Q95LI5 22-198).
T5 construct: whole, on cells; CD3 complex on cynomolgus monkey PBMC; also called cynomolgus monkey CD3 (PBMC); cynomolgus monkey CD3-expressing cells
Put plainly: flow cytometry on cynomolgus monkey PBMC, Penta-His Alexa Fluor 488 detection, rMFI = MFI minus sample without antibody.

As usually defined, the Kd is the equilibrium constant for the complex coming apart. A word on the EC50 (read off the curve): it is the concentration giving half of the maximal effect.

T4 sequence (P07766 23-207 limits assumed): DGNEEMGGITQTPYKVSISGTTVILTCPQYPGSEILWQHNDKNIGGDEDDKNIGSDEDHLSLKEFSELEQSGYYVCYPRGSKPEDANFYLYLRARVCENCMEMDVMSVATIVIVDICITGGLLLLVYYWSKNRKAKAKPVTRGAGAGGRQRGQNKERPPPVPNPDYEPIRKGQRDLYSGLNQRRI
T5 sequence (Q95LI5 22-198): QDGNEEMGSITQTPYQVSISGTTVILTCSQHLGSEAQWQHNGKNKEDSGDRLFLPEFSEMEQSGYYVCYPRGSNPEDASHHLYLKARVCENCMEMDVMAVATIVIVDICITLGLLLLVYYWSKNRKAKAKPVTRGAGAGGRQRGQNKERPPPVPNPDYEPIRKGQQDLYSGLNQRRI

B1: rat anti-GPRC5D antibody 7B4 (antibody, V domains shown)
VH: EIHLQESGPGLVKPSQSLSLTCSVTGYTITSGYDWSWIRKFPGNKMEWMAYMSYRGSTNYNPSLKSRISITRDTSKNQFFLQLNSVTTEDTATYYCALTRTYWYNYYYVLDAWGQGASVTVSS
VL: DIQMTQSPSFLSASVGERVTLSCKASQNINKYLDWYQQKLGEPPKLLIYNTNNLHTGIPSRFSGSGSGTDYTLTISGLQPEDVATYFCLQRNSWYTFGAGTKLELK
notes: Rat IgG2b, kappa chain
B1: the Kd in assay [1] stood at 2.1 nM; in assay [4], 1.3 nM. The “MFI (max)” value is 4470 in assay [1] and 2490 in assay [4]. For the same molecule, the binding result in assay [2] and in assay [3] was “no binding (tested: 0.1 ng/mL to 1 µg/mL)” in each case.

B2: anti-GPRC5D-anti-CD3 bispecific molecule C3022-C3E7034 (bispecific antibody)
scFv: GQVQLVQSGAEVKKPGASVKVSCKASGYTFTGYYMHWVRQAPGQGLEWMGRINPNSGGTNYAQKFQGRVTMTRDTSISTAYMELSGLRSDDTAVYYCASGSVRHPWGQGTLVTVSSGGGGSGGGGSGGGGSQPVLTQPPSASGTPGQRVTISCSGSRSNIGGNIVSWYQQFPGTAPRLLTYADNQRPSGVPDRFSGSKSGTSASLAISGLQSEDEADYYCAAWDDSLNGVVFGGGTKLTVLGGGGSEVQLVESGGGLVQPGGSLRLSCAASGVTFNYYGMSWIRQAPGKGLEWVASITNSGGRIYYPDSVKGRFTISRENTQKTLYLQMNSLRAEDTAVYYCTLDGRDGWVAYWGQGTLVTVSSGGGGSGGGGSGGGGSNFMLTQPHSVSESPGKTVTISCKRNTGNIGSNYVNWYQQHEGSSPTTIIYRDDKRPDGVSDRFSGSIDRSSKSASLTISNLKTEDEADYFCQSYSSGFIFGGGTKLTVLGAAAGAGGDYKDDDDKGAAAHHHHHH
notes: Tandem scFv
As for B2, the “EC50 (read off the curve)” value in assay [5] is roughly 0.3 nM; in assay [7] it was roughly 20 nM. In addition, the binding result in assay [6] is recorded as “binds”.

B3: anti-GPRC5D-anti-CD3 bispecific molecule C3048-C3E7034 (bispecific antibody)
scFv: GQVQLVQSGAEVKKPGSSVKVSCKASGGTFSRYAISWVRQAPGQGLEWMGGIIPIFGTANYAQKFQGRVTITADQSTRTAYMDLGRLRSEDTAVYYCALEGFRDSLKRNPFDIWGQGTMVTVSSGGGGSGGGGSGGGGSQSVVTQPPSVSAAPGQKVTISCSGGTTNIGSNYVSWYQQLPGTAPKFLMYENNKRPSGIPDRFSGSKSGTSATLAITGLQTGDEATYYCSTWDSSLNTGLFGGGTKLTVLGGGGSEVQLVESGGGLVQPGGSLRLSCAASGVTFNYYGMSWIRQAPGKGLEWVASITNSGGRIYYPDSVKGRFTISRENTQKTLYLQMNSLRAEDTAVYYCTLDGRDGWVAYWGQGTLVTVSSGGGGSGGGGSGGGGSNFMLTQPHSVSESPGKTVTISCKRNTGNIGSNYVNWYQQHEGSSPTTIIYRDDKRPDGVSDRFSGSIDRSSKSASLTISNLKTEDEADYFCQSYSSGFIFGGGTKLTVLGAAAGAGGDYKDDDDKGAAAHHHHHH
notes: Tandem scFv
Regarding B3, the “EC50 (read off the curve)” value in assay [5] is roughly 0.4 nM. In addition, the binding result in assay [6] is given as “binds”.

B4: rat anti-GPRC5D antibody 2A4 (antibody, V domains shown)
VH: QVQLQQSGAELAKPGTSVKLSCKASGYTFTSYYIYWVKQRPGQGLEWIGYVYPGYGGTYYSDKFKGKATFTADTSSSTAYMLLGSLTPEDSAYYFCARRKGIIRGPGYFDYWGQGVMVTVSS
VL: DIQMTQSPASLSASLGETVSIECLASEGISNSLAWYQQKPGKSPQLLIYGASSLQDGVPSRFSGSGSGTQYSLKISGMQPEDEGLYYCQQGYKYPPTFGGGTKLELK
notes: Rat IgG2b, kappa chain
B4: the Kd stood at 1.4 nM in assay [1] and 0.5 nM in assay [4]. The “MFI (max)” value in assay [1] amounted to 2060; in assay [4], 1150. The binding result in assay [2] and in assay [3] was “no binding (tested: 0.1 ng/mL to 1 µg/mL)” throughout.
